How the values were obtained:
[1] = biological target: T1, TnpA (IS608 transposase, Y1 HuH) (UniProt Q933Z0 1-155); assay: competition
T1 sequence: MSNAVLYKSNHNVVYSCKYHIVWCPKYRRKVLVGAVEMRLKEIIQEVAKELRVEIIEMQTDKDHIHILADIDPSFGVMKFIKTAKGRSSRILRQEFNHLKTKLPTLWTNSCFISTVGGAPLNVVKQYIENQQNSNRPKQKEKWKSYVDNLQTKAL

[2] = biological target: T1, TnpA (IS608 transposase, Y1 HuH); assay: EMSA
[3] = biological target: the molecule itself; assay: two-hybrid
[4] = biological target: T1, TnpA (IS608 transposase, Y1 HuH); assay: EMSA; remark: listed apart in the source
[5] = biological target: T1, TnpA (IS608 transposase, Y1 HuH); assay: EMSA; remark: listed apart in the source
[6] = biological target: Ssb (UniProt P0AGE0 1-178); assay: EMSA
Ssb, sequence (P0AGE0 whole entry): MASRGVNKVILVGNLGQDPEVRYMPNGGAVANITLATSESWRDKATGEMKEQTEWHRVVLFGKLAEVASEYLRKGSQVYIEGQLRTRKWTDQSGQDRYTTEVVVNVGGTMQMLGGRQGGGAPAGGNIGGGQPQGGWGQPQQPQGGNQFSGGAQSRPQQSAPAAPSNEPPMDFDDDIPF

B1: LE100 (structured_DNA)
DNA: CGGGCTGCAGGAATTCGATTTGCGCTAGTGCAAAAATTACCAAAACTAACGCCTTAAAGCCCCTAGCTTTTAGCTATGGGGATACAAGGCGAAACGCCTT
Does B1 bind [1]?
Result: binds

B2: fork / flap (L73 + L76l + L77) (mixed)
DNA 1: GTGATGACCTGTCGCCTCTGCCCGAAGACTCTAGATCGATACAAGCTACGCCTCTCAGCTCCGATGATGACGCTC
DNA 2: GAGCGTCATCATCGGAGCTGAGAGGCGTAGCTTGTATCTAGGAAGCCGCTGTAGCTCTCGCAATCAGCAGCCTTGTGCCG
DNA 3: CGGCACAAGGCTGCTGATTGCGAGAGCTACAGCGGCTTCCTA
Does B2 bind [2]?
Result: binds

B3: TnpAIS608, transposase of IS608, BACTH hybrid (T25-TnpAIS608 or TnpAIS608-T18) (enzyme, Helicobacter pylori (IS608), UniProt Q933Z0 1-155, looked up)
chain: MSNAVLYKSNHNVVYSCKYHIVWCPKYRRKVLVGAVEMRLKEIIQEVAKELRVEIIEMQTDKDHIHILADIDPSFGVMKFIKTAKGRSSRILRQEFNHLKTKLPTLWTNSCFISTVGGAPLNVVKQYIENQQNSNRPKQKEKWKSYVDNLQTKAL
How did the “β-galactosidase activity, fold above negative control” value [3] turn out when B3 was run?
Its value is 5 fold.

B4: ss60 (LE80 with 60-nt ss tail, S46) (structured_DNA)
DNA: CGCTAGTGCAAAAATTACCAAAACTAACGCCTTAAAGCCCCTAGCTTTTAGCTATGGGGATACAAGGCGAAACGCCTTCTGATGTCCTGTCGCCTCTGCCCGAAGACTCTAGATCGATTCAAGCTTCGCCTCTCAGCT
Does B4 bind [4]?
Result: binds

B5: ds60 (S46 + S44) (mixed)
DNA 1: CGCTAGTGCAAAAATTACCAAAACTAACGCCTTAAAGCCCCTAGCTTTTAGCTATGGGGATACAAGGCGAAACGCCTTCTGATGTCCTGTCGCCTCTGCCCGAAGACTCTAGATCGATTCAAGCTTCGCCTCTCAGCT
DNA 2: AGCTGAGAGGCGAAGCTTGAATCGATCTAGAGTCTTCGGGCAGAGGCGACAGGACATCAG
Does B5 bind [5]?
Result: binds

B6: ss target 125 nt (S56) (ssDNA)
DNA: GTGATGTCCTGTCGCCTCTGCCCGAAGACTCTATTACGATTCAAGCTTCGCCTCTCAGCTCCGATGATGTCGCTCATGCCTGCAGCAATGGCAACAACGAACGGCAAACTATTAACTGGCGAACT
Does B6 bind [6]?
Result: binds

Source: article PMC5027513 (Nucleic Acids Research, 2016)
